We go through 3 molecules from US20260265361A1 (PHRONTLINE BIOPHARMA SUZHOU, published 2026).

B1: Fab-Fc/Fab-Fc bispecific antibody (zalutumumab anti-EGFR A half-antibody / pertuzumab anti-HER2 B half-antibody), M1 combination (K2/H2) (bispecific antibody)
heavy 1: not shown
light 1: not shown
heavy 2: EVQLVESGGGLVQPGGSLRLSCAASGFTFTDYTMDWVRQAPGKGLEWVADVNPNSGGSIYNQRFKGRFTLSVDRSKNTLYLQMNSLRAEDTAVYYCARNLGPSFYFDYWGQGTLVTVSSASTKGPSVFPLAPSSKSTSGGTAALGCLVKDYFPEPVTVSWNSGALTSGVHTFPAVLQSSGLYSLSSVVTVPSSSLGTQTYICNVNHKPSNTKVDKKVEPKSCDKTHTCPPCPAPELLGGPSVFLFPPKPKDTLMISRTPEVTCVVVDVSHEDPEVKFNWYVDGVEVHNAKTKPREEQYNSTYRVVSVLTVLHQDWLNGKEYKCKVSNKALPAPIEKTISKAKGQPREPQVYTLPPSREEMTKNQVSLSCAVKGFYPSDIAVEWESNGQPENNYKTTPPVLRSDGSFFLVSKLTVDKSRWQQGNVFSCSVMHEALHNHYTQKSLSLSPGK
light 2: not shown
notes: No linker named between Fab and Fc; also called M1 mutant combination
B2: Fab-Fc/Fab-Fc bispecific antibody (zalutumumab anti-EGFR A half-antibody / pertuzumab anti-HER2 B half-antibody), M3 combination (K2/H7) (bispecific antibody)
heavy 1: not shown
light 1: not shown
heavy 2: B1 heavy 2 with L353Y
light 2: not shown
notes: No linker named between Fab and Fc; also called M3 mutant combination
B3: Fab-Fc/Fab-Fc bispecific antibody (zalutumumab anti-EGFR A half-antibody / pertuzumab anti-HER2 B half-antibody), M2 combination (K0/H8) (bispecific antibody)
heavy 1: not shown
light 1: not shown
heavy 2: B1 heavy 2 with L353Y, R401D
light 2: not shown
notes: No linker named between Fab and Fc; also called M2 mutant combination

Residue numbers refer to the chain shown, from its start.

T3 sequence (P55899 24-297 limits assumed, chain 1 of 2): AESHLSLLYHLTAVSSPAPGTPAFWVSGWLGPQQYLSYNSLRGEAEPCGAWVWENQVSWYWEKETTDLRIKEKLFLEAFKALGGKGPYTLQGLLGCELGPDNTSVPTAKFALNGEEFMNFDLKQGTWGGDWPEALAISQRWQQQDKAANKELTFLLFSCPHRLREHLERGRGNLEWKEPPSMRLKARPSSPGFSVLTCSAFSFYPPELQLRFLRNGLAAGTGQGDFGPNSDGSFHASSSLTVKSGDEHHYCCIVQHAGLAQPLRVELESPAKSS
T3 sequence (P61769 21-119 limits assumed, chain 2 of 2): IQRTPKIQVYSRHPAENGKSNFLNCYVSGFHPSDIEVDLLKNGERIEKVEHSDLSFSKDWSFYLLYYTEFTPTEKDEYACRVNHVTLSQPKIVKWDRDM

The first assay addresses T1, Recombinant human EGFR protein (ACRO Biosystems, EGR-H5222) (human, UniProt P00533 25-645).
T1 construct: Bought protein
The assay can be described thus: ELISA, plate coated with recombinant human EGFR at 1 µg/mL, HRP-labelled secondary antibody, OD450; EGFR panel, table under the curves (unit from the concentration axis).
As to B1, the EC50 (commonly the concentration giving half of the maximal effect) was determined as 0.017 µg/mL.
Still for that read-out and setting: for B2 the value was 0.0221 µg/mL; for B3, 0.0206 µg/mL.

For the next assay, the target named is T2, recombinant human FcγRI protein (ACRO Biosystems, Cat. FCA-H52H1) (human, UniProt P12314 16-288, limits assumed).
T2 construct: also called human FcγRI receptor
T2 sequence (P12314 16-288 limits assumed): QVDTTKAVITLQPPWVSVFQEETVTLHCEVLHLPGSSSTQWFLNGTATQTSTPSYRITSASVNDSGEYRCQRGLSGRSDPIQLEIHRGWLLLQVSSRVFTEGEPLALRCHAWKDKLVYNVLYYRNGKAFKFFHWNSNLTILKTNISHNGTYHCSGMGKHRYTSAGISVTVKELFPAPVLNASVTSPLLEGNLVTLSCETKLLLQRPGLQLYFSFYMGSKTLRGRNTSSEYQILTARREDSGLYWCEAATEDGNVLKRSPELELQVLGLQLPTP
The assay can be described thus: BLI (ForteBio Octet Red 96), human FcγRI immobilised on HIS1K sensors, 100 nM antibody; FcγRI table, column Kdis. A general note: In BLI a coated tip is dipped into the sample, and binding shifts an interference pattern.
In the case of B1, the off-rate (koff) (in general, the first-order rate constant of dissociation) is 0.00461 s⁻¹.
On the same count and under the same terms, to B2 belongs 0.00471 s⁻¹.
In the case of B3, the koff was 0.00453 s⁻¹.

The next assay has as its target T3, recombinant human FcRn (ACROBiosystems Cat FCM-H8286) (human, UniProt P55899 24-297; P61769 21-119).
T3 construct: also called human FcRn receptor
The assay can be described thus: BLI (ForteBio Octet Red 96), human FcRn immobilised on SA sensors, pH 6.0 buffer, 100 nM antibody; FcRn table, column Kdis.
Turning to B1, the off-rate constant (koff) was 0.0261 s⁻¹.
The same measure, in the same setting: to B2 belongs 0.0274 s⁻¹.
Same read-out and setting: for B3 the value was 0.0296 s⁻¹.

Another assay addresses T2, recombinant human FcγRI protein (ACRO …). Nature of the assay: BLI (ForteBio Octet Red 96), human FcγRI immobilised on HIS1K sensors, 100 nM antibody; FcγRI table.
Take B1: the equilibrium dissociation constant (Kd) (in general, the free concentration of one partner at which half of the binding sites on the other are occupied at equilibrium, for simple one-to-one binding) was 10 nM and the kon (commonly the second-order rate constant of association) amounted to 459000 M⁻¹ s⁻¹.
The like results for B2 were, in that order, 10.3 nM and 455000 M⁻¹ s⁻¹.
On the same counts, the results for B3 are 10 nM and 452000 M⁻¹ s⁻¹.

The target in the next assay is T3, recombinant human FcRn (ACROBiosystems …). The assay can be described thus: BLI (ForteBio Octet Red 96), human FcRn immobilised on SA sensors, pH 6.0 buffer, 100 nM antibody; FcRn table.
Take B1: the Kd was found to be 14.4 nM and the kon is 1.82e+06 M⁻¹ s⁻¹.
On the same counts, the results for B2 are 17.7 nM and 1.55e+06 M⁻¹ s⁻¹.
As to B3, the Kd was found to be 17.6 nM and the kon was 1.69e+06 M⁻¹ s⁻¹.
